The target in test [1] is BGR2008 spike protein RBD (BGR2008). As to the kind of experiment: BLI. (BLI is a label-free optical method that tracks binding on a fibre tip over time.)
The target of test [2] is WIV1 spike protein RBD (WIV1). Kind of test: BLI.
Test [3] addresses BGR2008 spike protein RBD (BGR2008). Kind of test: BLI. This is another data set of the same source.
The target in test [4] is WIV1 spike protein RBD (WIV1). As to the kind of experiment: BLI. This is another data set of the same source.
Test [5] deals with Anlong112 spike RBD (Anlong112). As to the kind of experiment: ELISA. (In general: An ELISA detects its analyte on a solid surface through an enzyme-linked reagent.)
The target of test [6] is BGR2008 spike protein RBD (BGR2008). Kind of test: ELISA.
The target of test [7] is BtKY72 spike protein RBD (BtKY72). Kind of test: ELISA.
Test [8] concerns the target PANG/GD spike protein RBD (PANG/GD). As to the kind of experiment: ELISA.
The target in test [9] is PANG/GX spike protein RBD (PANG/GX). Kind of test: ELISA.
For test [10], the target named is RaTG13 spike protein RBD (RaTG13). Kind of test: ELISA.
The target of test [11] is SC2018 spike RBD (SC2018). Kind of test: ELISA.
Test [12] deals with SX2011 spike RBD (SX2011). As to the kind of experiment: ELISA.
Test [13] addresses YN2013 spike RBD (YN2013). As to the kind of experiment: ELISA.
The target in test [14] is PANG/GD spike protein (PANG/GD). As to the kind of experiment: cell-based or functional assay.
The target in test [15] is PANG/GX spike protein (PANG/GX). Kind of test: cell-based or functional assay.
The target of test [16] is SC2018 spike RBD (SC2018). Kind of test: BLI; *no optimal fitting.
Test [17] concerns the target SARS-CoV-2 Spike protein (SARS-CoV-2 Wuhan-Hu-1) (UniProt P0DTC2). Kind of test: cell-based or functional assay.
The target of test [18] is PANG/GX spike protein RBD (PANG/GX).
The target in test [19] is PANG/GD spike protein RBD (PANG/GD).
For test [20], the target named is RaTG13 spike protein RBD (RaTG13).
Test [21] has as its target SC2018 spike RBD (SC2018).
The target of test [22] is WIV1 spike protein RBD (WIV1).
Test [23] addresses BGR2008 spike protein RBD (BGR2008).
Test [24] concerns the target BtKY72 spike protein RBD (BtKY72).
For test [25], the target named is ZC45 spike protein RBD (ZC45).

Like-named read-outs stand apart in the source and are kept apart here.

Chain of S2X259 (antibody) (VH): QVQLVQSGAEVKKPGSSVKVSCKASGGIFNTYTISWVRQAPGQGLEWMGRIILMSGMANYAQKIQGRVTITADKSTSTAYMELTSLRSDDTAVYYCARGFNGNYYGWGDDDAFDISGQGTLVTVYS
Chain of S2X259 (antibody) (VL): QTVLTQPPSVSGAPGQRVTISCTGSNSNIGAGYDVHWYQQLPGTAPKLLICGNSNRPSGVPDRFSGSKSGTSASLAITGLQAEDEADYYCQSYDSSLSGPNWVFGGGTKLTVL
Chain of S2X259 Fab (VH): as the sequence (VH) above
Chain of S2X259 Fab (VL): as the sequence (VL) above

Turning to S2X259 (antibody), the Kd in [1] worked out at 1.04 nM; in [2], 0.57 nM; in test [3] it was 1.24 nM; in test [4], 0.61 nM; in [16], 6.93 nM. Moreover, the EC50 in test [5] was 0.1 to 1 µg/mL; in [6] it was 0.0308 µg/mL; in [7], 0.0376 µg/mL; in [8], 0.0362 µg/mL; in test [9], 0.0281 µg/mL; in test [10], 0.0401 µg/mL. Further, the half-maximal effective concentration (EC50) in test [11], in test [12] and in test [13] was 0.001 to 0.05 µg/mL in each case. Moreover, the neutralization IC50 in [14] came out at 0.179 µg/mL; in test [15] it was 1.32 µg/mL.

In test [17], S2E12-LS (antibody) showed a neutralization EC50 (interpolated) of 0.0014 µg/mL, a neutralization EC90 (interpolated) of 0.0119 µg/mL and a neutralization IC50 of 0.0014 µg/mL.

In the case of S2X259 Fab, the Kd in [18] was determined as 10 nM; in test [19] it was 0.2 nM; in [20], 1.1 nM; in test [21] it was 64 nM; in test [22], 1.4 nM; in test [23] it was 3.6 nM. Further, the Kd stood at 0.4 nM in test [24] and 4000 nM in [25].

For the substance S2M11-LS (antibody), in [17], the neutralization EC50 (interpolated) was 0.0011 µg/mL, the neutralization EC90 (interpolated) is 0.0144 µg/mL and the neutralization IC50 was determined as 0.000914 µg/mL.

For orientation: Kd means the free concentration of one partner at which half of the binding sites on the other are occupied at equilibrium, for simple one-to-one binding. For orientation: EC50 means the concentration at which the effect is half-maximal. The low end stands for higher potency in that assay, the high end for lower potency in that assay.
